Test results published in article PMC10936178 (mBio, 2024).

Legend:
[1] = target: PvS1FL (full-length Plasmodium vivax subtilisin-like protease 1, Sub1, autoprocessed with bound prodomain) (UniProt E6Y8B9); assay: analytical ultracentrifugation, sedimentation equilibrium (Beckman Coulter XL-I, absorbance at 280 nm); conditions: 20°C, 150 mM NaCl, 10 mM CaCl2, pH 5: 50 mM NaCit (sodium citrate), pH 8: 50 mM Tris
[2] = target: the molecule itself; assay: AUC; sedimentation equilibrium, pH 5 (50 mM NaCit pH 5, 150 mM NaCl, 10 mM CaCl2), 20°C, 2, 5 and 10 µM protein, 9,000, 13,000 and 16,000 rpm, single-species model

With “PvS1FL (full-length Plasmodium vivax subtilisin-like protease 1, Sub1, autoprocessed with bound prodomain)” the “apparent molecular weight (single-species fit); oligomeric state” value ([1]; pH 5) was 135.8 ± 2.8 kDa (stable homodimer; theoretical monomer 67.71 kDa) and the “apparent molecular weight (single-species fit); oligomeric state” value ([1]; pH 8) was 67.9 ± 1.1 kDa (monomer; theoretical monomer 67.71 kDa).

B1: full-length Plasmodium vivax Sub1 (PvS1FL), recombinant, autocleaved at Asp202 (enzyme)
chain 1: GDILPNEGKKEKDDVHKIISELRFLQKVETILESSNMSVSDVEADANAYNPDRDAPKEELQKLQDQQETPSKQPNNLRNSPQKRAEKKESPGKNKKSLRLIVSENHATSPSFFEESLLQEDVVSFIQSKGKLSNLKNLKSMIIDLNSDMTDEELAEYISLLERKGALIESDKLVGAD
chain 2: DVSLASVKDAVRRGESSVNWGKLRSTMLEVPSGESPPSHAASSGSPFDDDDDLLSEAALHREEAHLAGSKTTKGYKFNDEYRNLQWGLDLARLDETQDLINANRVSVTKICVIDSGIDYNHPDLRNNIDVNVKELHGRKGVDDDSNGVVDDVYGANFVNNSGDPMDDNYHGTHVSGIISAVGNNGIGIVGVDGHSKLVICKALDQHKLGRLGDMFKCIDYCISRQAHMINGSFSFDEYSNIFNASVEHLRSLGILFFVSASNCAHDKLSKPDIAKCDLAVNHRYPPILSKTHNNVIAVANLKRDLDESYSLSVNSFYSNIYCQLAAPGTNIYSTTPMNNYRKLNGTSMASPHVAAIASIVRSINPNLTYLQIVEILRNAIVKLPSLTERVSWGGYVDILRAVNLAIDSKAAPYIKSHSWFRWKQGSRR
notes: Prodomain of P. vivax Sub1 up to the primary maturation site Asp202; Catalytic domain of P. vivax Sub1, from the residue after the primary maturation site Asp202 to the C-terminus
For B1, the “stoichiometry N” value [2] was 2.
